The supplement of paper PMC11246515
± gives the standard deviation of the averaged measurements.

Assay: total protein half-life in vivo (active degradation + dilution); higher = more stable protein
[1] = E. coli NCM3722 delta-clpP delta-lon delta-hslV, growth: N-lim chemostat, doubling time 6 h
[2] = E. coli NCM3722 delta-clpP, growth: N-lim chemostat, doubling time 6 h
[3] = E. coli NCM3722 delta-hslV, growth: N-lim chemostat, doubling time 6 h
[4] = E. coli NCM3722 delta-smpB, growth: N-lim chemostat, doubling time 6 h
[5] = wild type E. coli NCM3722, growth: C-lim chemostat, doubling time 3 h
[6] = wild type E. coli NCM3722, growth: C-lim chemostat, doubling time 6 h
[7] = wild type E. coli NCM3722, growth: C-lim chemostat, doubling time 12 h
[8] = wild type E. coli NCM3722, growth: N-lim chemostat, doubling time 6 h
[9] = wild type E. coli NCM3722, growth: N-lim chemostat, doubling time 12 h
[10] = wild type E. coli NCM3722, growth: P-lim chemostat, doubling time 6 h
[11] = wild type E. coli NCM3722, growth: P-lim chemostat, doubling time 12 h
[12] = E. coli NCM3722 delta-lon, growth: N-lim chemostat, doubling time 6 h

Row | Sequence | total protein half-life in vivo [1] [h] | total protein half-life in vivo [2] [h] | total protein half-life in vivo [3] [h] | total protein half-life in vivo [4] [h] | total protein half-life in vivo [5] [h] | total protein half-life in vivo [6] [h] | total protein half-life in vivo [7] [h] | total protein half-life in vivo [8] [h] | total protein half-life in vivo [9] [h] | total protein half-life in vivo [10] [h] | total protein half-life in vivo [11] [h] | total protein half-life in vivo [12] [h]
1 | MTSPNILLTRIDNRLVHGQVGVTWTSTIGANLLVVVDDVVANDDIQQKLMGITAETYGFGIRFFTIEKTINVIGKAAPHQKIFLICRTPQTVRKLVEGGIDLKDVNVGNMHFSEGKKQISSKVYVDDQDLTDLRFIKQRGVNVFIQDVPGDQKEQIPD | 5.94 ± 1 | 3.82 ± 0.62 | 4.08 ± 0.26 | 4.01 ± 0.37 | 3.52 ± 0.3 | 5.07 ± 0.32 | 6.95 ± 0.34 | 3.67 | 6.28 ± 0.71 | 4.28 ± 1.7 | 11 ± 0.5 | 
2 | MRRLRFSPRSSFARTLLLIVTLLFASLVTTYLVVLNFAILPSLQQFNKVLAYEVRMLMTDKLQLEDGTQLVVPPAFRREIYRELGISLYSNEAAEEAGLRWAQHYEFLSHQMAQQLGGPTEVRVEVNKSSPVVWLKTWLSPNIWVRVPLTEIHQGDFSPLFRYTLAIMLLAIGGAWLFIRIQNRPLVDLEHAALQVGKGIIPPPLREYGASEVRSVTRAFNHMAAGVKQLADDRTLLMAGVSHDLRTPLTRIRLATEMMSEQDGYLAESINKDIEECNAIIEQFIDYLRTGQEMPMEMADLNAVLGEVIAAESGYEREIETALYPGSIEVKMHPLSIKRAVANMVVNAARYGNGWIKVSSGTEPNRAWFQVEDDGPGIAPEQRKHLFQPFVRGDSARTISGTGLGLAIVQRIVDNHNGMLELGTSERGGLSIRAWLPVPVTRAQGTTKEG [P0AEJ4] | 6.372 ± 0.049 | 7.33 ± 0.82 | 6.19 ± 0.26 | 6.14 ± 0.39 | 3.2 ± 0.14 | 6.16 ± 0.14 |  | 6.35 ± 0.27 | 13.1 ± 0.43 | 6.87 ± 0.93 | 14.12 ± 0.043 | 6.19 ± 0.32
3 | MGLPPLSKIPLILRPQAWLHRRHYGEVLSPIRWWGRIPFIFYLVSMFVGWLERKRSPLDPVVRSLVSARIAQMCLCEFCVDITSMKVAERTGSSDKLLAVADWRQSPLFSDEERLALEYAEAASVTPPTVDDALRTRLAAHFDAQALTELTALIGLQNLSARFNSAMDIPAQGLCRIPEKRS | 6.87 ± 0.28 | 6.4 ± 0.37 | 6.22 ± 0.48 | 5.67 ± 0.46 | 2.74 ± 0.068 | 5.52 ± 0.59 | 12.1 ± 0.48 | 6 ± 0.46 | 11.3 ± 3.4 | 6.48 ± 0.71 | 13.1 ± 0.5 | 6.463 ± 0.023
4 | MSSLPVAAVLPELLTALDCAPQVLLSAPTGAGKSTWLPLQLLAHPGINGKIILLEPRRLAARNVAQRLAELLNEKPGDTVGYRMRAQNCVGPNTRLEVVTEGVLTRMIQRDPELSGVGLVILDEFHERSLQADLALALLLDVQQGLRDDLKLLIMSATLDNDRLQQMLPEAPVVISEGRSFPVERRYLPLPAHQRFDDAVAVATAEMLRQESGSLLLFLPGVGEIQRVQEQLASRIGSDVLLCPLYGALSLNDQRKAILPAPQGMRKVVLATNIAETSLTIEGIRLVVDCAQERVARFDPRTGLTRLITQRVSQASMTQRAGRAGRLEPGISLHLIAKEQAERAAAQSEPEILQSDLSGLLMELLQWGCSDPAQMSWLDQPPVVNLLAAKRLLQMLGALEGERLSAQGQKMAALGNDPRLAAMLVSAKNDDEAATAAKIAAILEEPPRMGNSDLGVAFSRNQPAWQQRSQQLLKRLNVRGGEADSSLIAPLLAGAFADRIARRRGQDGRYQLANGMGAMLDANDALSRHEWLIAPLLLQGSASPDARILLALLVDIDELVQRCPQLVQQSDTVEWDDAQGTLKAWRRLQIGQLTVKVQPLAKPSEDELHQAMLNGIRDKGLSVLNWTAEAEQLRLRLLCAAKWLPEYDWPAVDDESLLAALETWLLPHMTGVHSLRGLKSLDIYQALRGLLDWGMQQRLDSELPAHYTVPTGSRIAIRYHEDNPPALAVRMQEMFGEATNPTIAQGRVPLVLELLSPAQRPLQITRDLSDFWKGAYREVQKEMKGRYPKHVWPDDPANTAPTRRTKKYS | 5.57 ± 0.07 | 5.56 ± 0.99 | 3.91 ± 0.046 | 4.21 ± 0.25 | 2.8 ± 0.11 | 4.648 ± 0.041 | 9.65 ± 3.8 | 3.97 ± 0.26 | 6.433 ± 0.061 | 4.905 ± 0.044 | 9.09 ± 0.45 | 4.29 ± 0.098
5 | MLKRCLSPLTLVNQVALIVLLSTAIGLAGMAVSGWLVQGVQGSAHAINKAGSLRMQSYRLLAAVPLSEKDKPLIKEMEQTAFSAELTRAAERDGQLAQLQGLQDYWRNELIPALMRAQNRETVSADVSQFVAGLDQLVSGFDRTTEMRIETVVLVHRVMAVFMALLLVFTIIWLRARLLQPWRQLLAMASAVSHRDFTQRANISGRNEMAMLGTALNNMSAELAESYAVLEQRVQEKTAGLEHKNQILSFLWQANRRLHSRAPLCERLSPVLNGLQNLTLLRDIELRVYDTDDEENHQEFTCQPDMTCDDKGCQLCPRGVLPVGDRGTTLKWRLADSHTQYGILLATLPQGRHLSHDQQQLVDTLVEQLTATLALDRHQERQQQLIVMEERATIARELHDSIAQSLSCMKMQVSCLQMQGDALPESSRELLSQIRNELNASWAQLRELLTTFRLQLTEPGLRPALEASCEEYSAKFGFPVKLDYQLPPRLVPSHQAIHLLQIAREALSNALKHSQASEVVVTVAQNDNQVKLTVQDNGCGVPENAIRSNHYGMIIMRDRAQSLRGDCRVRRRESGGTEVVVTFIPEKTFTDVQGDTHE [P0AFA2] | 6.01 ± 0.078 | 6.25 ± 0.066 |  | 5.44 ± 0.34 | 3.11 ± 0.058 | 5.44 ± 0.39 | 10.9 ± 0.31 | 5.65 ± 0.069 | 11.1 ± 0.78 | 6.05 ± 0.12 | 11 ± 1.5 | 5.32 ± 0.25
6 | MSQTIDLTLDGLSCGHCVKRVKESLEQRPDVEQADVSITEAHVTGTASAEQLIETIKQAGYDASVSHPKAKPLAESSIPSEALTAVSEALPAATADDDDSQQLLLSGMSCASCVTRVQNALQSVPGVTQARVNLAERTALVMGSASPQDLVQAVEKAGYGAEAIEDDAKRRERQQETAVATMKRFRWQAIVALAVGIPVMVWGMIGDNMMVTADNRSLWLVIGLITLAVMVFAGGHFYRSAWKSLLNGAATMDTLVALGTGVAWLYSMSVNLWPQWFPMEARHLYYEASAMIIGLINLGHMLEARARQRSSKALEKLLDLTPPTARLVTDEGEKSVPLAEVQPGMLLRLTTGDRVPVDGEITQGEAWLDEAMLTGEPIPQQKGEGDSVHAGTVVQDGSVLFRASAVGSHTTLSRIIRMVRQAQSSKPEIGQLADKISAVFVPVVVVIALVSAAIWYFFGPAPQIVYTLVIATTVLIIACPCALGLATPMSIISGVGRAAEFGVLVRDADALQRASTLDTVVFDKTGTLTEGKPQVVAVKTFADVDEAQALRLAAALEQGSSHPLARAILDKAGDMQLPQVNGFRTLRGLGVSGEAEGHALLLGNQALLNEQQVGTKAIEAEITAQASQGATPVLLAVDGKAVALLAVRDPLRSDSVAALQRLHKAGYRLVMLTGDNPTTANAIAKEAGIDEVIAGVLPDGKAEAIKHLQSEGRQVAMVGDGINDAPALAQADVGIAMGGGSDVAIETAAITLMRHSLMGVADALAISRATLHNMKQNLLGAFIYNSIGIPVAAGILWPFTGTLLNPVVAGAAMALSSITVVSNANRLLRFKPKE | 5.76 ± 0.52 | 5.33 ± 0.2 | 5.194 ± 0.042 | 5.23 ± 0.55 | 2.89 ± 0.21 | 5.07 ± 0.085 | 9.5 ± 0.77 | 5.26 ± 0.34 | 9.52 ± 0.35 | 5.33 ± 0.32 | 9.65 ± 0.45 | 5.433 ± 0.023
